Source: the supplement of paper PMC10724198
± gives the standard deviation of the averaged measurements.

Test system: Saccharomyces cerevisiae
Assay: protein stability index of tFT-peptide fusion (C-terminal peptide) (PSI (0-1 scale)); higher = more stable (slower turnover)
Settings: genetic background: wild type; temperature: 30 C
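Further: PSI is a weighted mean of sequencing reads over stability bins, variants kept only with over 10 reads, mCherry proximal and sfGFP distal, peptide attached via GGGS linker.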

Row | Sequence | protein stability index
1 | LPATCFSPPSSS | 0.687 ± 0.057
2 | PASSTLRPPAHP | 0.723 ± 0.18
3 | EVRWIGLPMCTS | 0.6524 ± 0.0023
4 | KQRGSKVIIKVD | 0.663 ± 0.011
5 | PFPSPPAPPPLP | 0.672 ± 0.048
6 | NYNGVRRYNGFK | 0.574 ± 0.052
7 | PPPRPTPAPPRV | 0.65 ± 0.032
8 | PHTLPPLLRHAP | 0.693 ± 0.015
9 | PPRSFLPPRFSW | 0.702 ± 0.066
10 | HLVPYVVKHLVP | 0.6785 ± 0.0062
11 | GPPPPPPLPQLW | 0.77 ± 0.037
12 | PHPRFYPSTPPP | 0.64827 ± 7.8e-06
13 | GSPPHTLPLHGR | 0.67 ± 0.03
14 | KPQQKQEKLTNP | 0.736 ± 0.043
15 | RKEEKKEGKGTR | 0.663 ± 0.062
16 | GSVCCLSLHCFV | 0.62 ± 0.033
17 | PPAPTPLSPLAS | 0.693 ± 0.051
18 | IPSVRATDGKIM | 0.649 ± 0.024
19 | SKKRKKNNAKTK | 0.713 ± 0.01
20 | SPPPPSPTCPHL | 0.652 ± 0.035
21 | DSFAIFFDWPAC | 0.695 ± 0.0092
22 | LLRRLILLQATW | 0.5677 ± 0.0053
23 | PPPTPKITPMSI | 0.6871 ± 0.0018
24 | PPPRPPHGPLPY | 0.658 ± 0.037
25 | SAIALGCEGVYP | 0.6853 ± 0.0012
26 | GRSDAPVPFDPP | 0.561 ± 0.0098

Row | Sequence | protein stability index
27 | KPLLSPPTIFPL | 0.711 ± 0.032
28 | WSIGGKSFVGIA | 0.676 ± 0.031
29 | GSLRLASAHGLV | 0.729 ± 0.02
30 | VAYYFVRNIIGE | 0.667 ± 0.056
31 | DILACAPCRRGP | 0.704 ± 0.022
32 | GAGEGAQEDPAS | 0.705 ± 0.013
33 | GGGGGEAGVIGR | 0.892 ± 0.15
34 | LKQNRIKCPWTL | 0.728 ± 0.017
35 | PLHPDSCGSLSS | 0.647 ± 0.038
36 | GWGGEGQNGSEG | 0.638 ± 0.019
37 | SPLFLVIRLPST | 0.62 ± 0.055
38 | RVKRTGLGVWGF | 0.649 ± 0.033
39 | VARLCVPSGPGH | 0.721 ± 0.0096
40 | RLPAPPPHPPPP | 0.7037 ± 0.0013
41 | GGCRRGVQLFWD | 0.7236 ± 0.0023
42 | APHLPGHLTRPP | 0.686 ± 0.086
43 | SVSPRPSPPAVP | 0.708 ± 0.13
44 | STFRICTGVPRP | 0.729 ± 0.0093
45 | RRGRGGGRRVDA | 0.731 ± 0.021
46 | GMDGWGWGGSVV | 0.706 ± 0.026
47 | GRFRQTVTGEGW | 0.669 ± 0.087
48 | IFFRARRLEAHT | 0.608 ± 0.019
49 | SISANPGAPHFP | 0.666 ± 0.022
50 | LKDEERYKRRKV | 0.709 ± 0.016
51 | IKFMTTGVRTMG | 0.662 ± 0.03
52 | GVRKGEESGVGW | 0.717 ± 0.0085

Row | Sequence | protein stability index
53 | SEKILCTGECAA | 0.619 ± 0.07
54 | SIIRWSKRTEES | 0.695 ± 0.049
55 | CCPLRLPRSRGY | 0.705 ± 0.055
56 | GCMGGYAFFSGG | 0.571
57 | KDDKQRKQHGKK | 0.6632 ± 0.0046
58 | WGGGGGVWGHVV | 0.603 ± 0.034
59 | EKLKTKEEKKTR | 0.759 ± 0.054
60 | YRPPSPPSPLPP | 0.674 ± 0.007
61 | RSVIEHKMRKKR | 0.682 ± 0.026
62 | SLPSSPPPSPPL | 0.7172 ± 0.0043
63 | PFLLVSHESSLE | 0.718 ± 0.0077
64 | STCSTSQPPSPS | 0.663 ± 0.069
65 | SPPAPPVSPPPP | 0.744 ± 0.042
66 | PPPHPPPLAIPP | 0.767 ± 0.075
67 | VKPVLEILKTKT | 0.663 ± 0.037
68 | GKTITNENPKGH | 0.705 ± 0.021
69 | TFHTSSSPAHLP | 0.663 ± 0.038
70 | NCSPLCLRVASS | 0.647 ± 0.029
71 | LGAIGFVVVGGL | 0.622 ± 0.029
72 | LGEAGGWSLGFG | 0.73 ± 0.018
73 | LCPGYVDSRCRG | 0.6959 ± 0.0034
74 | RSETGYGTSWGA | 0.627 ± 0.026
75 | LGVRGSMGPGGG | 0.683 ± 0.082
76 | RKAPLPDRGIPW | 0.708 ± 0.017
77 | EVALDRLKNRGG | 0.671 ± 0.028
78 | WCRGGGWPVTGL | 0.7 ± 0.042

Row | Sequence | protein stability index
79 | LLLGLPLDVGDS | 0.708 ± 0.066
80 | PHLSRSVSKVLR | 0.659 ± 0.066
81 | PSRPRPRRRRQA | 0.751 ± 0.073
82 | GSTLGGMAWGAR | 0.682 ± 0.014
83 | PPPAWTPPPRTA | 0.7163 ± 0.001
84 | PHTFNVRPFHPD | 0.674 ± 0.034
85 | LSSSLLSLLYNF | 0.534 ± 0.039
86 | KELESKLISKKR | 0.75 ± 0.068
87 | PSPPPPHPSALT | 0.648 ± 0.012
88 | GVICALPPVVGR | 0.685 ± 0.071
89 | HALSVDPAFKQS | 0.66 ± 0.05
90 | LVRGGHRLSFRL | 0.732 ± 0.015
91 | TLRLPLHLLRPT | 0.642 ± 0.021
92 | GGGGGGGVAGGV | 0.715 ± 0.041
93 | MNRKEREKKRIK | 0.697 ± 0.023
94 | IGGYNRTFELMG | 0.678 ± 0.032
95 | LSVPWSTRPFSV | 0.703 ± 0.019
96 | RGGWRGVWGHVV | 0.599 ± 0.033
97 | TSGAEKLPIANS | 0.648 ± 0.05
98 | GLASLTVGAASV | 0.671 ± 0.011
99 | SKEERRKGSKKI | 0.686 ± 0.054
100 | SGVVIDDSLKEE | 0.683 ± 0.0092
101 | RWARGGSRGGGG | 0.703 ± 0.044
102 | IKKRKQYCKRIK | 0.6801 ± 0.0048
103 | PPPLTSPPHPPP | 0.724 ± 0.029
104 | SPPSPPPPPPPS | 0.691 ± 0.061

Row | Sequence | protein stability index
105 | SGAATSRRGLCS | 0.672 ± 0.013
106 | SRDSGLIDPRFS | 0.66973 ± 0.00044
107 | PLPHPPPLALRT | 0.655 ± 0.063
108 | SLFPAETPPKYR | 0.656 ± 0.025
109 | ATLVRTTWSCHG | 0.669 ± 0.014
110 | EYVKFGMEHILE | 0.675 ± 0.024
111 | DGWSEAGQGGKG | 0.679 ± 0.034
112 | PPSPPPAFPPPA | 0.64 ± 0.059
113 | LGVGFFLGFRTG | 0.6508 ± 0.0048
114 | LGLGERLSINTF | 0.70035 ± 0.00022
115 | DRVLRGAIWVSV | 0.571 ± 0.045
116 | VRRPSPSGGWLR | 0.73 ± 0.051
117 | FMMRPPVSSKVS | 0.554 ± 0.0048
118 | PSSCSLLPLCLG | 0.663 ± 0.065
119 | GRGGGGGAVGEW | 0.683 ± 0.037
120 | PPPSPPSVPRAS | 0.643 ± 0.027
121 | PPLPPPIPLRPP | 0.539 ± 0.02
122 | CGVMLFGLGCLW | 0.6321 ± 0.00042
123 | KKEKKKTKKEKR | 0.696 ± 0.067
124 | HTGTCSVLPHTL | 0.663 ± 0.052
125 | PPTFLPLPSSPP | 0.651 ± 0.079
126 | RSSPPPRHDPSP | 0.696 ± 0.088
127 | CFNGRVGGGGMR | 0.636 ± 0.086
128 | PPDRNPANTSCD | 0.638 ± 0.029
129 | LIKATAYRTNRQ | 0.745 ± 0.044
130 | GARPTKCCSYGT | 0.683 ± 0.011

Row | Sequence | protein stability index
131 | VCVVGGSILRAV | 0.711 ± 0.048
132 | GGGGGGAEGAGW | 0.711 ± 0.02
133 | PFVLVSDAHLIT | 0.66 ± 0.035
134 | TGTPGAVRRGGA | 0.727 ± 0.1
135 | PPPHPPLPTFDP | 0.707 ± 0.05
136 | FPCGARPFPLAF | 0.704 ± 0.049
137 | CTFSGLLEMAGR | 0.7253 ± 0.0024
138 | RGTYRYNFSQKK | 0.652 ± 0.12
139 | NTKNPRPQDPQQ | 0.651 ± 0.013
140 | LPLRPPPSLLSR | 0.689 ± 0.064
141 | ALFFCLFGRVMW | 0.488 ± 0.023
142 | YGCPSSSSVLDG | 0.812 ± 0.11
143 | LFPSFRSLSFVI | 0.672 ± 0.035
144 | HDAKIGTSTCWV | 0.654 ± 0.024
145 | FCIRLFLLPLCP | 0.5869 ± 0.0055
146 | LATGLVIETLWE | 0.753 ± 0.042
147 | GLSSAVSPSFGR | 0.598 ± 0.017
148 | GCLWRGARALGP | 0.687 ± 0.075
149 | GRGWGGALGWCG | 0.668 ± 0.013
150 | DQGMSDVYPDCW | 0.662 ± 0.011
151 | RWTLMMAIIRQR | 0.559 ± 0.024
152 | ICMGSLLYVGPC | 0.5515 ± 0.0034
153 | RKKQYEKKSEKP | 0.689 ± 0.11
154 | VEEYKKRNNKEG | 0.64 ± 0.01
155 | YASDGNSRLRAN | 0.691 ± 0.02
156 | AHNRQRPEPDAR | 0.636 ± 0.031

Row | Sequence | protein stability index
157 | NKSHFGHSCYLR | 0.64 ± 0.013
158 | PVRLGAGGGCRP | 0.693 ± 0.02
159 | PVSSPLVFLLSI | 0.625 ± 0.045
160 | RKTGTGETRTRR | 0.691 ± 0.015
161 | HQLSQYEGARTL | 0.733 ± 0.064
162 | SHSLPHLSGPPR | 0.698 ± 0.056
163 | PHSPLSPAPQSP | 0.787 ± 0.02
164 | GPRAGFRRPELE | 0.733 ± 0.043
165 | PPPISPRPPRRA | 0.708 ± 0.0094
166 | EEEQGPSENEKT | 0.9714 ± 0.0082
167 | PSRRPLPHPPPP | 0.654 ± 0.045
168 | VILFINRIDDGK | 0.616 ± 0.057
169 | GQHSCTRVDTQQ | 0.734 ± 0.011
170 | PAACPTRTCLYP | 0.719 ± 0.045
171 | ANRTIFWGRVRN | 0.721 ± 0.05
172 | AGSCVRLGGPEW | 0.745 ± 0.052
173 | ILRPAPVFPLDP | 0.689 ± 0.0089
174 | TSNLRIISTWRV | 0.685 ± 0.024
175 | GAVWGRLTGSAH | 0.6469 ± 0.005
176 | VVLGGGVGRGCW | 0.691 ± 0.13
177 | GWSCRGVGGGLG | 0.708 ± 0.045
178 | FWCMLLAPFVNV | 0.657 ± 0.11
179 | TSSTATWSYRNY | 0.673 ± 0.036
180 | WRQRVWRGGWKG | 0.594 ± 0.031
181 | PLFPPPSLLTPH | 0.719 ± 0.14
182 | YCGGWCGGWEIG | 0.709 ± 0.0075

Row | Sequence | protein stability index
183 | LTSSGLSFSAVL | 0.7249 ± 0.0027
184 | KSSAGAGQCPLS | 0.712 ± 0.019
185 | EPGREKRRIVQK | 0.679 ± 0.042
186 | RRMSQQCLPRQR | 0.739 ± 0.047
187 | KYTSQRSPRIFR | 0.573 ± 0.2
188 | GSGVVCTMGWRL | 0.6856 ± 0.0068
189 | RRVNDLGPPMRN | 0.779 ± 0.092
190 | FFCDFFYLSSHF | 0.716 ± 0.019
191 | LISVWQLDVRSG | 0.579 ± 0.0023
192 | PPSPPPPPAAST | 0.768 ± 0.13
193 | IRIIETPDSFYK | 0.795 ± 0.058
194 | VFLQRIDDKSPY | 0.712 ± 0.046
195 | DGPALWPRSVVD | 0.684 ± 0.1
196 | HDHRTLMRQPTR | 0.697 ± 0.037
197 | GGWSHMHLGLDG | 0.665 ± 0.024
198 | LVPTQGDFVVLL | 0.721 ± 0.053
199 | PLEYPAQATMKP | 0.657 ± 0.021
200 | VLYPVISVLTTL | 0.629 ± 0.011
201 | ELSCMDGPLLCP | 0.683 ± 0.059
202 | PPHAYTSTPSLF | 0.67 ± 0.028
